Experimental findings from patent US20250320282A1 (MABYLON, published 2025) are described below.

Changes are numbered by the printed parent chain.

Assay [1] has as its target T1, Ara h 2 (Arachis hypogaea allergen 2) (Arachis hypogaea, UniProt Q6PSU2 22-172).
T1 construct: Peanut allergen; also called nAra h 2; natural Ara h 2
T1 sequence: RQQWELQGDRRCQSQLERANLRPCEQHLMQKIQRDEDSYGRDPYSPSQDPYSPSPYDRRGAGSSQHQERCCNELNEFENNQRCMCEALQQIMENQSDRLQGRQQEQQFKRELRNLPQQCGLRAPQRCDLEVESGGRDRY
Put plainly: ELISA, antibody titrated on coated Ara h 2. As for the experimental part:
(§1) Monoclonal antibodies 2F8, 7G6, 17H9 and 15E3 were tested for their specificity against the major peanut allergens Ara h 1, 2, 3, and 6 by ELISA (enzyme linked immunosorbent assay). Briefly, ELISA plates were coated with respective Ara h proteins (Arah1: 0.5 ug/ml, Arah2: 0.01 ug/ml, Arah3: 0.1 ug/ml, Arah6: 0.05 ug/ml) overnight at 4° C. Afterwards, plates were blocked with BSA (2% in PBS) for 1 hour at room temperature. Antibody titration series starting from 3 ug/ml was prepared, added to the single ELISA plate wells and incubated for 2 h at room temperature. The read-out was performed by adding anti-hu-IgG-HRP (anti-human-IgG horseradish peroxidase; Jackson ImmunoResearch, West Grove, PA, USA) for 1 h at room temperature. Tetramethylbenzidine substrate solution (TMB, Sigma-Aldrich Chemie GmbH, Buchs, Switzerland) was added, then after 5 minutes of hydrolysis time, the reaction was stopped by the addition of 1 M H₂SO₄ and the absorbances were read at 450 nm.
For orientation: ELISA stands for enzyme-linked immunosorbent assay.

Assay [2] concerns the target T2, Ara h 6 (Arachis hypogaea allergen 6) (Arachis hypogaea, UniProt Q647G9 22-145).
T2 construct: Peanut allergen; also called Ara h 6.0101; nAra h 6
T2 sequence: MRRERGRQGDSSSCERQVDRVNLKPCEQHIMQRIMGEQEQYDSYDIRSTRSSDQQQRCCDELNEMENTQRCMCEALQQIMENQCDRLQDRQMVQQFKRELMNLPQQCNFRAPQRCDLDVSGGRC
Nature of the assay: ELISA, antibody titrated on coated Ara h 6. How it is done: as §1

Assay [3] has as its target T2, Ara h 6 (Arachis hypogaea allergen 6). Put plainly: ELISA, Fab titration on coated Ara h 6. How it is done: Next, the effect of the engineered variable regions on antigen binding was tested. Briefly, ELISA plates were coated with respective Ara h proteins (Ara h 2:0.05 ug/ml, Ara h 6:0.1 ug/ml, Ara h 3 loop (2nd): 0.1 ug/ml) overnight at 4° C. Afterwards, plates were blocked with BSA (2% in PBS) for 1 hour at room temperature. Fab fragment titration series starting from 4 ug/ml was prepared, added to the single ELISA plate wells and incubated for 2 h at room temperature. The read-out was performed by adding anti-hu-kappa/lambda-HRP (anti-kappa Invitrogen (A18853) and anti-lambda abcam (ab99811) for 1 h at room temperature. Tetramethylbenzidine substrate solution (TMB, Sigma-Aldrich Chemie GmbH, Buchs, Switzerland) was added, then after 5 minutes of hydrolysis time, the reaction was stopped by the addition of 1 M H₂SO₄ and the absorbances were read at 450 nm.

The target is the same in assay [4]. Nature of the assay: ELISA, purified rabbit antibody.
Assay [5] has as its target T3, Ara h 3 (Arachis hypogaea allergen 3) (Arachis hypogaea).
T3 construct: Peanut allergen; also called Ara h 3.0101; nAra h 3
T3 chain: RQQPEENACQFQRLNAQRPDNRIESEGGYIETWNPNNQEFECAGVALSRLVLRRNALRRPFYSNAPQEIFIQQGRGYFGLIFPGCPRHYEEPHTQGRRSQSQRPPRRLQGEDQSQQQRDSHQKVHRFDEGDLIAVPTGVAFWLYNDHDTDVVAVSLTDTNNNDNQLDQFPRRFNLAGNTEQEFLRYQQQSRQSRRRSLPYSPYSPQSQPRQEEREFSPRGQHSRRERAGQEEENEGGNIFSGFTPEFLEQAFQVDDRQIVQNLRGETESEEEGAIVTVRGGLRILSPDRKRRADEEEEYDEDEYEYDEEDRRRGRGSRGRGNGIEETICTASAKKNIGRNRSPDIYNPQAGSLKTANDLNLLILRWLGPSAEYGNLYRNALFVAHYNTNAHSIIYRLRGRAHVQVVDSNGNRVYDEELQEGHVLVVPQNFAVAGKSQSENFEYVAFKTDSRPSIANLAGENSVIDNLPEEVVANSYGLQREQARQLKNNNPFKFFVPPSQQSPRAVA
Put plainly: ELISA, antibody titrated on coated Ara h 3. As for the experimental part: as §1

B1: 2F8 (antibody, V domains shown)
VH: EVQLVESGGGLVKPGGSLRLSCAASGFIFSDYNMNWVRQAPGKGLEWVSSITRSSRTIYYADSVKGRFTISRDNAKNSLHLQMNSLRDADTAVYYCAREDFDVSTGPYYMDVWGNGTTVIVSS
VL: EIVLTQSPGTLSLSPGERATLSCRASQSVSNMFLVWYQQKPGQAPRLLMYGASTRATDIPDRFSGSGSGTDFTLTISRLEPEDFAVYYCQQNGNSPYTFGQGTKLEIK
notes: Fully human monoclonal antibody, wild-type variable regions; tested as IgG; also called MY006-2F8
As usually defined, the EC50 is the concentration needed to bring the measured effect to its halfway point. B1: the EC50 in assay [1] came to 3.31 ng/mL; in assay [2] it was 2.46 ng/mL.

B2: MY006-2F8 Fab Lg (Fab, V domains shown)
VH: B1 VH
VL: B1 VL with D58G
notes: Germlined variant, IgG1-Fab format; also called 2F8 Lg
Take B2: the binding result in assay [3] is “binds”.

B3: MY006-2F8 Fab Hg Lf (Fab, V domains shown)
VH: B1 VH with K13Q, H80Y, A89E, N115K, I120T
VL: B1 VL with M49I, D58G
notes: Germlined variant, IgG1-Fab format; also called 2F8: Hg/Lf
In the case of B3, the binding result in assay [3] was “binds”.

B4: 15E3_rb_IGHV1S8_J5+IGLV2S2_JL5 (antibody, V domains shown)
VH: QKQLVESGGGLDQPAGSLKLSCKDSGFTLSTFYMTWVHQAPGKGLEWIANIKQDGSEKDYLDSVRGRFTISSDNTQNMVDLEMNSLTAADMAIYFCARNGLQDSYSGDFFDHWGQGTLVTVSS
VL: QPALTQPSSVSGALGGSVTITCSGTGSNIGHNYVSWYQQLPGSVPKLLMFDNTKRPSGIPERFSGSKSGTTASLTISGLQPEDEADYYCATWDADLSAVLFGGGTKLTVL
Turning to B4, the binding result in assay [4] is given as “binds”.

B5: 15E3 (antibody, V domains shown)
VH: EVQLVESGGALVQPGGSLRLSCAASGFKFSTFYMTWIRQAPGKGLEWVANIKQDGSEKDYLDSVRGRFNISRDNAKSVLYLQMNTLSADDTGVYYCTRNGLQDSYSGDFFDHWGQGILVTVSS
VL: QSVLTQPPSISAAPGQKVTISCSGTGSNIGHNYVSWYQQLPRTAPRLLIFDNTKRPSGIPDRFSGSKSGSSATLGITGLQTGDEAHYFCATWDADLSAVLFGGGTKLTVL
notes: Fully human monoclonal antibody, wild-type variable regions; also called MY006-15E3; 15E3-human IgG1
Turning to B5, the EC50 in assay [1] is 3.78 ng/mL; in assay [2], 1.74 ng/mL.

B6: 7G6 (antibody, V domains shown)
VH: QVQLVESGGGVVQPGRSLRLSCAASGIAFNDYTMHWVRRSPDKGLEWVAAISYGGTNKYYADSVKGRFTISRDSSKNTLFLQMDSLRVEDTAVYYCARDSGYRSLLHWGQGTLVTVSS
VL: EIVLTQSPLSLPVTPGEPASISCRSSQSLVHRNGYNYLDWYLQKPGQSPQLLIYMASKRASGVPDRFSGSGSGTEFTLKISRVEAEDVGIYYCMQALQTWTFGQGTKVEVN
notes: Fully human monoclonal antibody, wild-type variable regions; tested as IgG; also called MY006-7G6
Turning to B6, the concentration giving a half-maximal response (EC50) came out at 0.629 ng/mL in assay [1] and 1 ng/mL in assay [2].

B7: 7G6_rb_IGHV1S47_J3+IGKV1S19_JK1-2 (antibody, V domains shown)
VH: QEQLVESGGGLVQPEGSLTLTCKASGFDFSDYTMHWVRQAPGKGPEWIAAISYGGTNKYYADSVKGRFTISRSTSLNTVTLQMTSLTAVDTATYFCARDSGYRSLLHWGQGTLVTVSS
VL: AAVLTQTPSPVSAAVGGTVTIKCRSSQSLVHRNGYNYLDWYQQKPGQPPKLLIYMASKRASGVPDRFSGSGSGTQFTLTISGVQCDDAATYYCMQALQTWTFGGGTKVVVK
On to B7, for which, in assay [4], the binding result was “binds”.

B8: 7G6_rb_IGHV1S47_J3+IGKV1S19_JK1-3 (antibody, V domains shown)
VH: B7 VH
VL: B7 VL with F102L, G104P, V108L, V109E, V110I
For the molecule B8, in assay [4], the binding result was “binds”.

B9: 7G6_rb_IGHV1S47_J3+K66N_IGKV1S19_JK1-2 (antibody, V domains shown)
VH: B7 VH
VL: B7 VL with K58N
notes: Fully rabbit antibody: 7G6 CDRs grafted onto rabbit variable frameworks
For B9, the binding result in assay [4] is on record as “binds”.

B10: 17H9 (antibody, V domains shown)
VH: QVQLEEYGGGVVQPGRSLRLSCVASGSTLGTYGMHWVRQAPGKGLEWVAIISPDGGHQDYADPVRGRFTVSRDNSKNTLYLQMDNLRVEDTAVYYCATTLCARTDCTWVRSDSWGQGTLVTVSS
VL: ANVLTQSPGTLSLSPGERATLSCRASQRVSGDYLAWYQQKRGQAPRLLIYGASSRATGIPDRFSGSGSGTDFTLTISRLEPEDFAVYYCQHYNGPPVTFGQGTKLEIK
notes: Fully human monoclonal antibody, wild-type variable regions; tested as IgG (detected with anti-human IgG); also called MY006-17H9
In the case of B10, the half-maximal effective concentration (EC50) worked out at 2.2 ng/mL in assay [1] and 7.38 ng/mL in assay [5].
